This note sets out measurements from patent US20240398906A1 (YEDA RESEARCH AND DEVELOPMENT, published 2024).

The target of experiment [1] is T1, recombinant catalytic domain of human LOX (169-417) (human, UniProt P28300 169-417).
T1 construct: also called LOX-catalytic domain; recombinant LOX
T1 sequence: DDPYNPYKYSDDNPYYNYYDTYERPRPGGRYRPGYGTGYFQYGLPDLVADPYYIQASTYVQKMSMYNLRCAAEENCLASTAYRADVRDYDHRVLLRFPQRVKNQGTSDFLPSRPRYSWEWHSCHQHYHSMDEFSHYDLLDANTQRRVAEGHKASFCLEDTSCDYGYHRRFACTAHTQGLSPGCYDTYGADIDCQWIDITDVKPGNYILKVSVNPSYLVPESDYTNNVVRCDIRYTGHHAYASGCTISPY
The experiment in a line: ELISA, plate coated with LOX catalytic domain, detection with anti-human peroxidase antibody. On the procedure: (§1) ELISA binding assay: A ninety-six-well plate (Nunc) was coated with LOX-catalytic domain, HSP70 or BSA at 10 μg/ml. After blocking with 2% BSA in PBS, the plate was incubated with the antibodies for 1 h at 37° C. Bound antibodies were detected by peroxidase-conjugated antibody goat anti-human (Jackson ImmunoResearch). EC₅₀ was calculated with GraphPad Prism from […] curve fitting analysis.

Experiment [2] concerns the target T2, recombinant HSP70 (UniProt P0DMV8 1-641, limits assumed).
T2 construct: Purified on a HisTrap column; also called heat shock protein 70
The experiment in a line: ELISA, plate coated with recombinant HSP70, detection with anti-human peroxidase antibody. How it is done: as §1

Experiment [3] deals with T1, recombinant catalytic domain of human …. Briefly: dissociation constant against LOX; microscale thermophoresis according to paragraph 89.
For experiment [4] the target is unchanged. The experiment in a line: binding affinity against LOX; ELISA according to paragraph 88.

Values joined by “and” are separate entries in the source; they are usually repeats but may differ in a detail not shown here. Equal values may be shown once.

T2 sequence (P0DMV8 whole entry): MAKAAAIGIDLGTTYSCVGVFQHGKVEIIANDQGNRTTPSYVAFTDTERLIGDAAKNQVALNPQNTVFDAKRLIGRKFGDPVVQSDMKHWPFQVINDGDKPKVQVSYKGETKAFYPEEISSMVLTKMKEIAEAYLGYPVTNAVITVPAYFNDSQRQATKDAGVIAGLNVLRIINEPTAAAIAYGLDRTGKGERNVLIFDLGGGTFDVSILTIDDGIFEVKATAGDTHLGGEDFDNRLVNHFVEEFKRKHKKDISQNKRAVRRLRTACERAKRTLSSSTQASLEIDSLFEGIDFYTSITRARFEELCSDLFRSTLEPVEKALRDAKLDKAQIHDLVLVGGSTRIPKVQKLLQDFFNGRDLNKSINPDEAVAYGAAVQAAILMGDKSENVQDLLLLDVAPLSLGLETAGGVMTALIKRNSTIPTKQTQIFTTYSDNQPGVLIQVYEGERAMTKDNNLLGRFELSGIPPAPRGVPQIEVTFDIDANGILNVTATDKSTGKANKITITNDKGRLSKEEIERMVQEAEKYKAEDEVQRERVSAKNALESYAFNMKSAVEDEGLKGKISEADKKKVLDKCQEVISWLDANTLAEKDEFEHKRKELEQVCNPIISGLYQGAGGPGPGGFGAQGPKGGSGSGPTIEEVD

B1: AS1 (glycosylated LOX-PP fused to human IgG1 Fc) (Fc fusion)
chain: APPAAGQQQPPREPPAAPGAWRQQIQWENNGQVFSLLSLGSQYQPQRRRDPGAAVPGAANASAQQPRTPILLIRDNRTAAARTRTAGSSGVTAGRPRPTARHWFQAGYSTSRAREAGASRAENQTAPGEVPALSNLRPPSRVDGMVG
modifications: N-glycosylated on N81, N97 and N144 (precursor numbering; positions 60, 76 and 123 of the piece). Disulfide-linked dimer through the Fc hinge.
notes: also called AS1 decoy; not shown: Human IgG1 Fc (hinge-CH2-CH3), its orientation relative to LOX-PP and any linker
Regarding B1, the EC50 in experiment [1] turned out to be 43 nM; in experiment [2], 41 nM.

B2: Fc-LPD (Fc fusion)
chain: B1 chain
For B2, the dissociation constant Kd in experiment [3] is 32 nM. Further, the EC50 in experiment [4] was 40 nM and 43 nM.
